Laboratory results: paper PMC2810501

Target: specific saturable binding sites for S100A8/A9 on cell membranes of blood MDSC (carboxylated N-glycan receptors)
Experiment: radioligand binding

Kd: 0.0374 µM
Substance: S100A8/A9 heterodimer, purified, Na125I-labeled (from UniProt P27005 1-89; P31725 1-113) (complex)
